Experiment: soluble fraction after stress (log2 fold change); higher = more stays soluble; pooled small domains, quantitative proteomics
Conditions: stress: 75 degC
With “HMARKTIFHSLLGELEQRIGRLPAGTILPAEQALADEYGVSKPTLRRALAELAEHGLITKENGIGSVVI” the “soluble fraction (log2)” value was -0.577.
With “HMARLAGVDLPREKRIEIGLTYIYGIGLARSQEILKKAGINPDIRVKDLTDEQEQAIRNAMDGYIVEGDL” the “soluble fraction (log2)” value was -1.
With “HMARLQEVVVRVPVEDGQTLAAIYREAEVIERADEGTGVLLTVRIPAPLLGRLRRLEGVHVQP” the “soluble fraction (log2)” value was -1.07.
With “HMARRLELEDIPVDEVLFTASRNLVDAIEVMDPSRQAPMIQPWLKQALEWAVGALGFSKEDAVATLTSD” the “soluble fraction (log2)” value was 0.157.
In the case of “HMASAAHYEGVKTEGESDNDVITRVLTATGVTAEKDDIFVVKSLIADGKYSYTAYVYDGSVWAAMD”, the “soluble fraction (log2)” value is reported as -0.236.
For “HMASALDVALNDFAEMRKKMRKPLTDRALALTLSELEKLAPGNDEKKIAILNQSIQRGWQGVFPLK”, the “soluble fraction (log2)” value was -0.336.
In the case of “HMASDEVPGAGFKWREDVLLRVMEANGIDKSNRDDFVRHAVNFDDDDNNYLKKAEIEAAAAAWVESQSPA”, the “soluble fraction (log2)” value is reported as -0.696.
With “HMASDLPTVTIMGKTFYTYVAKKGESFFGIANRFGWDPELLVKTNRELETPLDKGALIYYPVPKKPK” the “soluble fraction (log2)” value was -1.32.
For “HMASIATLTVKALGGASDVVIRDKDGRIIWADRLPAGQSHRVFGHAPFNVAASHASRVQLSLLGKDVGRV”, the “soluble fraction (log2)” value was -1.37.
For “HMASISDRIRLLRAESHMTQEEFGRIFGISKPTVSFYEHGKSVPNDQIKTAIARYFGVSVDYLLGVTD”, the “soluble fraction (log2)” value was -2.14.
For “HMASKTGTITATSLNVRSGAATTYSILGTLSNGKTVTIYEESNGWYKINYNGGYGWVSKTYVSTG”, the “soluble fraction (log2)” value was -1.53.
For “HMASLASVAYETLRQALDNFQYVPGDRFSESEVGQQLGMSRTPVREALVRLQREGYISVLPKMGWVVNQ”, the “soluble fraction (log2)” value was -1.86.
In the case of “HMASMHDGVAARLRAMVFERELAPGEFIDERRLAQQWQISRTPLREALKVLAAEGLVELVPRRGARVV”, the “soluble fraction (log2)” value is reported as -1.12.
In the case of “HMASPKEALWRSLAEEPDTWWDNRERKSQPGANPRSPDFKHKESGEALWIESRDTPTWVLETL”, the “soluble fraction (log2)” value is reported as -0.196.
In the case of “HMASQEESVATYIQDYYRNPKTGESMVSDDMVEEFYKTHPEWEDQADGSKEGMEAVLDNFNEFFEINYG”, the “soluble fraction (log2)” value is reported as 0.333.
For “HMASSRPLAEGDFVRLRAGGATGRIESIKGQKATVQMGGLKVHAPLRDLLPVAEPIKQVSTASNT”, the “soluble fraction (log2)” value was -0.00256.
In the case of “HMASVAKHIRRLRTERHMTQGDLAEKLFVTRQTVSAWETGKAQPDLETLERIAVVLGVEVTELIYGAP”, the “soluble fraction (log2)” value is reported as -0.707.
In the case of “HMASVVEQVQVSNDISLFRQQNSPYWQARFKVAGKWYTRTTKRTEQTQAAFRAAELRSEVQTKISQGIPLR”, the “soluble fraction (log2)” value is reported as -2.56.
For “HMATESYYVLKADVPAKTLVTQEMVEEIKVSKGGAPVNSIKIDNIKEKGVYTSIPLLKGDVLSASNTG”, the “soluble fraction (log2)” value was 0.131.
For “HMATKVSSGATVRDVADLLGLSSAELIKKLMMMGEMATLTQTLTDESIKSIADEYDRKIEIVSAAE”, the “soluble fraction (log2)” value was -0.0786.
For “HMATNVLEISTRNKNILIQDSLNLVESFYSKSDNQYWYKLVFKTKDDLNKFLQEVSEDENTITYKTSSI”, the “soluble fraction (log2)” value was -0.359.
With “HMATPEINNLGRLRNAINQSNVNWHQIIKRLQNEYPNNWRQILIAIDRHDLLFRYDVENYIKYG” the “soluble fraction (log2)” value was -2.31.
In the case of “HMATPIAGTKYTLNNTPVYGTEKGPSIGKRSGIYYTWDATVRNGRIRMTNSPARVGVPWQVSFWVEVNKL”, the “soluble fraction (log2)” value is reported as -2.9.
In the case of “HMATPRLAIVPQSAAGRRLDAVLAELFPEYSRSRLSAWIKTGDVMVDGAAPRGRDPVRGGEEITLTAVQ”, the “soluble fraction (log2)” value is reported as -0.183.
With “HMATPTEHQLQAQARAVVEKAERLLDRASADDREDIINLIEKITDALAAEDFTAVKAPLAELSDILFYLE” the “soluble fraction (log2)” value was -0.104.
For “HMATPTMEDYIEVIYSLVKTKGYARSADIAEKLEVYPSTVTKMLKKLDAEGYIVYEKYRGIALTDIGKKMG”, the “soluble fraction (log2)” value was -2.17.
In the case of “HMATSNGEFVIPDGGLQFEELERSLLMQALKKSGGSQTGAARLLGLSRDTLRYRLEKFGIDAAAVRE”, the “soluble fraction (log2)” value is reported as -0.39.
For “HMATVTVPNLKGMTPSGAESALAELNLKGAVGDSVESNDVENGKVASQDQAAGSDAKEGDTITYHLSS”, the “soluble fraction (log2)” value was 0.235.
In the case of “HMATYETEVISGVNLRSAPNTSASVYRLLSKGEDIHVIQKVNDYWLKVQTKDGKIGYISASSKYTNYIA”, the “soluble fraction (log2)” value is reported as -1.52.
With “HMAVEETFTITWLDRDGTVLEVDENVLKGTMPSFDGHIPPHDGLEFKGWDPEVVPVEGDATYTATYKA” the “soluble fraction (log2)” value was 0.508.
With “HMAVENTGLSKRELEILQMMARGMSNQEIGDALFISLSTVKTHVASIFSKLQAVRRTQAVGIAKSLKII” the “soluble fraction (log2)” value was -2.91.
For “HMAVFSKKQIFDTAFALFESKGLEAITARNLGKALSSSPAPIYAHYSSITELKNELISVAKDR”, the “soluble fraction (log2)” value was -3.06.
With “HMAVGDMISKLRTAANMSQEQFAELFGVTRQSVQKWENSFSVPELEKLIKISKYFDVSLDALVLRSDARVT” the “soluble fraction (log2)” value was -2.5.
With “HMAVLFFVKRGERILGPTRLADLFQHAASGRLRANDLVGESPKGPWLPARQLDELEDAWASSRDATEAAAA” the “soluble fraction (log2)” value was -0.817.
For “HMAVNQEFKNTINRIKYEYSLNQSQIADRLGVKKTYLSDMINGRVPYNETMNKKVNDVFPLPP”, the “soluble fraction (log2)” value was -0.169.
In the case of “HMAVPTHVEFPVVGLQRSGITSLEQAIATVPGVSKAVVNVSDNRIFVDYDPTRSKVSDLLEVVRGAGFTP”, the “soluble fraction (log2)” value is reported as -0.043.
In the case of “HMAVQAESDIIKRAALLRNLGNTSMQLKNIDQAIDFYKQGIKLHPEDAELKYNLSQALRQKSQSNN”, the “soluble fraction (log2)” value is reported as 0.055.
In the case of “HMAVQEDAGLAREDLPPEVQGLLQEREAARAAKDWGKSDALRRQLQDLGYAIKDTAQGMEIKRT”, the “soluble fraction (log2)” value is reported as 0.817.
With “HMAVRNTKQKQLVLSLLKNSGRPMTAGEIYRLAVQQYPNIAKSTVYRNLENLVSRGEVSQGMHQNGESFYS” the “soluble fraction (log2)” value was -0.697.
For “HMAVSPEEQKKRIIELFRNRNEVSFKEIFDLPTKGHFVITLLAVLDLARQQIVIMEQLENEGIIKFTKGA”, the “soluble fraction (log2)” value was 0.134.
With “HMAVSSHAVKQRIRSLIQAEDPAAPLSDEALRLALSALGVDVSRRVIAKYRAELNIPSSSQRKK” the “soluble fraction (log2)” value was -0.823.
For “HMAVSVPDVMGLTYEEAYNKITAEGLLVNRLESYTGLVEKGRVISQLPVGGEPAAKGSTVNVNVSL”, the “soluble fraction (log2)” value was 0.466.
In the case of “HMAVTFPYTAYATDAVRLRERPSSSADVLAVIRKGDAVLVTGTDGNYAIVDYEGKRGYVVSSFIAT”, the “soluble fraction (log2)” value is reported as -0.522.
With “HMAVWRIKVNYIPGYGVNIWSSYKNGHFTGKRAMHGETYEVLETKKDQDGNTWYKLDDHQWIEGRYAINAK” the “soluble fraction (log2)” value was -2.45.
With “HMAYMETIERVEALAPGTKFNLKALFGTDWTQSRGTKLTLGKTFYEMVESGYVKTAKVLGKDSSNIMQYER” the “soluble fraction (log2)” value was 0.0793.
In the case of “HMAYSEEERNLIRSRLKDVAAALFKEKGIRDTNIDEIYTPVGISKTFFYSFFPSKAVLAIAIMK”, the “soluble fraction (log2)” value is reported as -0.248.
With “HMAYVDWYENKQPTHEEAFKKLLGRIHPGAIVLLHSTSKTNGEILDELLTKWEEMGYRFGTLDELTGN” the “soluble fraction (log2)” value was -1.58.
In the case of “HMDAATDAIKAEVRALLEMANAQGIDTESIMLEAHEQTRNATEQDYYEAAKSALEAAIAGSNRDR”, the “soluble fraction (log2)” value is reported as 0.435.
For “HMDADGEPIKLDQIGISHLSFTVADVKSLGEELVAKGVKLAAPMEAFTSPEGRISSIFVYDPDGILLQFDD”, the “soluble fraction (log2)” value was 0.136.
For “HMDADRLSPREREMLQFIARGQSNKEIARALELAESTVKIHVQNMLRKLNLSSRVQAAVFAVENGLG”, the “soluble fraction (log2)” value was -1.59.
With “HMDAGLAEIIRSFEDNLGGFPPAAREDLLGWREIFTDDLILLAIKKAALAGVRKWSYVNGILKVWKNEGVR” the “soluble fraction (log2)” value was -2.23.
With “HMDAHYMEMKGKTGTAFTMLRPAGKIDIEGQIFDAVAEAGFIEKGEAIRVVKYENAQLIVRK” the “soluble fraction (log2)” value was -0.446.
With “HMDAIAYLGSRLKEIRLKSGLSLREIARQLDVSPSFISQIENGKSQPSVATLYAFAKLLNVPVDVLFQPS” the “soluble fraction (log2)” value was -2.59.
With “HMDAKNNPQVMAQIRAILTAKGLSEDEVKTRLKTKNIDVDKMTDQEIIAQRPAIEAIINEMEQEKKQKMG” the “soluble fraction (log2)” value was 0.0493.
With “HMDALPLIQLEKEIKDFISQGQKINAIKHYRNVMDRDFGTTISLKLAKYTVDALAQNIKVDLTKGYDQ” the “soluble fraction (log2)” value was -1.01.
For “HMDALTLSIDAQGALYWNGQPVSRELAAQRFVEAAAQRPQPELHLRADQNVAYRHVAMTLADASRAGLTR”, the “soluble fraction (log2)” value was -0.248.
With “HMDANAYTYKVSEDTDTRTGEKIFLVKVAEKLSRKEYIVVNNYMKSLGSYYSKFKHAFLFKENPTEKL” the “soluble fraction (log2)” value was -0.55.
For “HMDANLGEIFKVYEQEIGALTPFVREEMLDAIDHYPRDWILDAIRESAKSNARNWKYTLAILKRWKAEG”, the “soluble fraction (log2)” value was -0.284.
With “HMDAPIIRLLNSLVQRAVTTTASDIHIEPFEGETKVRMRIDGVIIDYVTLQRALHQPLIARIKIMSNLD” the “soluble fraction (log2)” value was -0.15.
In the case of “HMDAPKTGSLVVSKAVNYGSWSGFTFRLHGTSDKGNSVDVTATTGSDGKAYFKDIEIGTYTLEEVN”, the “soluble fraction (log2)” value is reported as -0.406.
With “HMDAQEAAWARKMMETLPEKQKLSVALRIEEGLSFKEIGEIIGSSEGAARVNYFHGIRRLRELL” the “soluble fraction (log2)” value was -0.789.
With “HMDAQNLQDQLFGFLKANPTQAYPAQTLADGLRLDDANAFTKVVQALAALERGGKVKVNEEGAFQYDAEK” the “soluble fraction (log2)” value was 0.43.
With “HMDARSTHIAAIHVLKSKLQLQDSDYRALLLTLTGQTSSKDLSEHQRRAVRNHMQQLAERMGVVQ” the “soluble fraction (log2)” value was -1.46.
For “HMDATFKVRVSVPDLNIRSGPGTNYAATGRFTGVGVFTITAVQSGQGSSSGWGKLKSGAGWIALDYAKR”, the “soluble fraction (log2)” value was -3.78.
With “HMDATIGGFKITDSAIYSGVKNNVNAGVRGTYIDKDGQIAFGDSNSYLKYYKDTDGKWKLEVSASSVKF” the “soluble fraction (log2)” value was 0.454.
In the case of “HMDAVDKDGNHMTFKKWSEQLQEAFHALELYDTTRAKQILSELVKFQVDSDITKSLKAIITNIDDMMA”, the “soluble fraction (log2)” value is reported as -1.13.
With “HMDAYDEVTTLSQMVASGKNTTVAHLKHLKEYHQTDYLRQAVEWLLSNRKNVSFSVDEVMQEVHN” the “soluble fraction (log2)” value was -0.0471.
For “HMDAYLPETVQKLLDVMDFDVPYSAAQLMEKLGLKSRASFRKLYLLPALEKNLIAMGVPDKPTSRNQTYIR”, the “soluble fraction (log2)” value was -0.787.
In the case of “HMDAYSYFIRTYPLVDDPLIGDIRRIFAETHDGNPAGDADVRHILWRLLFERELYPTLDEATADWY”, the “soluble fraction (log2)” value is reported as -2.39.

Reference: the domain aggregation screens of Martell et al. (2025)
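Note: 20 min heating vs room temperature control held 20 min.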
